Measurements reported in the RNAGym collection of RNA variant scans (doi:10.7554/elife.90254).

B1: LINE1-full (parent)
chain: UACGUAGGUGGUUUUCCCCUGAUAGUGCUAAGGGGGCCUGGAAGUUUGGACUGGGCAGAGCUCAACACAGCGUGGCAAAGUGGCUGUGGCUAGACUGCCUCUCUGGAUUCCUCGUCACUCAGCAGGGCAUCUCUGAGAGAAAUGCC

Variants of: B1
Test: self-cleavage, relative activity (ratio to wild type); higher = more cleavage; in vitro, sequencing; the parent is a self-cleaving ribozyme
UACGUAGGUGGUUCUCCCCUGAUAGUGCGAAGGGGGCCUGGAAGUUUGGACUGGGCAGAGCUCAACACAGCGUGGCAAAGUGGCUGUGGCUAGACUGCCUCUCUGGAUUCCUCGUCACUCAGCAGGGCAUCUCUGAGAGAAAUGCC [U14C U29G] gave a self-cleavage of 0.26.
Work on UACGUAGGUGGUUCUCCCCUGAUAGUGCUAAGGGGGCCUGGAAGUUUGGACUGGGCAGAGCUCAACACAGCGUGGCAAAGUGGCUGUGUCUAGACUGCCUCUCUGGAUUCCUCGUCACUCAGCAGGGCAUCUCUGAGAGAAAUGCC [U14C G89U] yielded a self-cleavage of 0.05.
UACGUAGGUGGUUCUCCCCUGAUAGGGCUAAGGGGGCCUGGAAGUUUGGACUGGGCAGAGCUCAACACAGCGUGGCAAAGUGGCUGUGGCUAGACUGCCUCUCUGGAUUCCUCGUCACUCAGCAGGGCAUCUCUGAGAGAAAUGCC [U14C U26G] gave a self-cleavage of 1.61.
Work on UACGUAGGUGGUUCUCCCCUGAUAGCGCUAAGGGGGCCUGGAAGUUUGGACUGGGCAGAGCUCAACACAGCGUGGCAAAGUGGCUGUGGCUAGACUGCCUCUCUGGAUUCCUCGUCACUCAGCAGGGCAUCUCUGAGAGAAAUGCC [U14C U26C] yielded a self-cleavage of 1.12.
UACGUAGGUGGUUCUCCCCUGAUAGUGCUAAGGGGGCCUGGAAGUUUGGACUGGGCAGAGCUCAACACAGCGUGGCAAAGUGGCUGUGGCUAGACUGCCUCUCUCGAUUCCUCGUCACUCAGCAGGGCAUCUCUGAGAGAAAUGCC [U14C G105C] showed a self-cleavage of 1.84.
Work on UACGUAGGUGGUUCUCCCCUGAUAGUGCUAAGGGGGCCUGGAAGUUUGGACUGGGCAGAGCUCAACACAACGUGGCAAAGUGGCUGUGGCUAGACUGCCUCUCUGGAUUCCUCGUCACUCAGCAGGGCAUCUCUGAGAGAAAUGCC [U14C G70A] yielded a self-cleavage of 0.26.
For UACGUAGGUGGUUCUCCCCUGAUAGUGCUAAGGGGGCCCGGAAGUUUGGACUGGGCAGAGCUCAACACAGCGUGGCAAAGUGGCUGUGGCUAGACUGCCUCUCUGGAUUCCUCGUCACUCAGCAGGGCAUCUCUGAGAGAAAUGCC [U14C U39C], the self-cleavage was 1.
UACGUAGGUGGUUCUCCCCUGAUAGUGCUAAGGGGGCCAGGAAGUUUGGACUGGGCAGAGCUCAACACAGCGUGGCAAAGUGGCUGUGGCUAGACUGCCUCUCUGGAUUCCUCGUCACUCAGCAGGGCAUCUCUGAGAGAAAUGCC [U14C U39A] showed a self-cleavage of 1.12.
For UACGUAGGUGGUUCUCCCCUGAUAGUGCUAAGGGGGCCUGGAAGUUUGGACUGGGCAGAGCUCAACACAGCGUGGCAAAGUGGCUGUUGCUAGACUGCCUCUCUGGAUUCCUCGUCACUCAGCAGGGCAUCUCUGAGAGAAAUGCC [U14C G88U], the self-cleavage was 0.06.
Work on UACGUAGGUGGUUCUCCCCUGAUAGUGCUAAGGGGGCCUGGAAGUUAGGACUGGGCAGAGCUCAACACAGCGUGGCAAAGUGGCUGUGGCUAGACUGCCUCUCUGGAUUCCUCGUCACUCAGCAGGGCAUCUCUGAGAGAAAUGCC [U14C U47A] yielded a self-cleavage of 1.17.
UACGUAGGUGGUUCUCCCCUGAUAGUGCUAAGGGGGCCUGGAAGUUUGGACUGGGCAGAGCCCAACACAGCGUGGCAAAGUGGCUGUGGCUAGACUGCCUCUCUGGAUUCCUCGUCACUCAGCAGGGCAUCUCUGAGAGAAAUGCC [U14C U62C] showed a self-cleavage of 0.09.
In the case of UACGUAGGUGGUUCUCCCCUGAUAGUGCUAAGGGGGCCUGGAAGUUUGGACUGGGCAGAGCACAACACAGCGUGGCAAAGUGGCUGUGGCUAGACUGCCUCUCUGGAUUCCUCGUCACUCAGCAGGGCAUCUCUGAGAGAAAUGCC [U14C U62A], the self-cleavage is reported as 0.1.
Work on UACGUAGGUGGUUCUCCCCAGAUAGUGCUAAGGGGGCCUGGAAGUUUGGACUGGGCAGAGCUCAACACAGCGUGGCAAAGUGGCUGUGGCUAGACUGCCUCUCUGGAUUCCUCGUCACUCAGCAGGGCAUCUCUGAGAGAAAUGCC [U14C U20A] yielded a self-cleavage of 0.89.
In the case of UACGUAGGUGGUUCUCCCCGGAUAGUGCUAAGGGGGCCUGGAAGUUUGGACUGGGCAGAGCUCAACACAGCGUGGCAAAGUGGCUGUGGCUAGACUGCCUCUCUGGAUUCCUCGUCACUCAGCAGGGCAUCUCUGAGAGAAAUGCC [U14C U20G], the self-cleavage is reported as 0.9.
With UACGUAGGUGGUUCUCCCCUGAUAGUGCUAAGGGGGCCUGGAAGUUUGGACUGGGCAGAGCUCAACACAGCGUGGCAAAGUGGCUGUGGCUAUACUGCCUCUCUGGAUUCCUCGUCACUCAGCAGGGCAUCUCUGAGAGAAAUGCC [U14C G93U] the self-cleavage was 0.06.
UACGUAGGUGGUUCUCCCCUGAUAGUGCUAAGGGGGCCUGGAAGGUUGGACUGGGCAGAGCUCAACACAGCGUGGCAAAGUGGCUGUGGCUAGACUGCCUCUCUGGAUUCCUCGUCACUCAGCAGGGCAUCUCUGAGAGAAAUGCC [U14C U45G] showed a self-cleavage of 1.34.
Variant UACGUAGGUGGUUCUCCCCUGAUAGUGCUAAGGGGGCCUGGAAGUUUGGACUGGGCAGAGCUCAACACAGCGUGGCAAAGUGGCUGUGGCUAGACUGCCUCUCUGGAUUCCUCAUCACUCAGCAGGGCAUCUCUGAGAGAAAUGCC [U14C G114A] has a self-cleavage of 1.06.
Variant UACGUAGGUGGUUCUCCCCUGAUAGUGCUAAGGGGGCCUGGAAGUUUGGACUGGGCAGAGCUCAACACAGCGUGGCAAAGUGGCCGUGGCUAGACUGCCUCUCUGGAUUCCUCGUCACUCAGCAGGGCAUCUCUGAGAGAAAUGCC [U14C U85C] has a self-cleavage of 0.23.
In the case of UACGUAGGUGGUUCUCCCCUGAUAGUGCUAAGGGGGCCUGGAAGUUUGGACUGGGCAGAGCUCAACACAGCGUGGCAAAGUGGCAGUGGCUAGACUGCCUCUCUGGAUUCCUCGUCACUCAGCAGGGCAUCUCUGAGAGAAAUGCC [U14C U85A], the self-cleavage is reported as 0.08.
For UACGUAGGUGGUUCUCCCCUGAUAGUGCUAAGGGGGCCUGGAAGUUUGGACUGGGCAGAGCUCAACACAGCGUGGCAAAGUGGCUGUGGCUAGACUGCCUCUCUGGAAUCCUCGUCACUCAGCAGGGCAUCUCUGAGAGAAAUGCC [U14C U108A], the self-cleavage was 0.98.
In the case of UACGUAGGUGGUUCUCCCCUGAUAGUGCUAAGGGGGCCUGGAAGUUUGGACUGGGCAGAGCUCAACACAGCGUGGCAAAGUAGCUGUGGCUAGACUGCCUCUCUGGAUUCCUCGUCACUCAGCAGGGCAUCUCUGAGAGAAAUGCC [U14C G82A], the self-cleavage is reported as 1.35.
Work on UACGUAGGUGGUUCUCCCCUGAUAGUGCUAAGGGGGCCUGGAAGUUUGGACUGGGCAGAGCUCAACACAGCGUGGCAAAGUGGCUGUGGCUAGACUGCCUCUCUGGAUUCCUCGUCACUCAGCAAGGCAUCUCUGAGAGAAAUGCC [U14C G125A] yielded a self-cleavage of 1.46.
In the case of UACGUAGGUGGUUCUCCCCUGAUAGUGCUAAGGGGGCCUGGAAGUUUGGACUGGGCAGAGCUCAACACAGCGUGGCAAAGUGGCUGUGGCUAGACUGCCUCACUGGAUUCCUCGUCACUCAGCAGGGCAUCUCUGAGAGAAAUGCC [U14C U102A], the self-cleavage is reported as 1.67.
Work on UACGUAGGUGGUUCUCCCCUGAUAGUGCUAAGGGGGCCUGGAAGUUUGGACUGGGCAGAGCUCAACACAGCGGGGCAAAGUGGCUGUGGCUAGACUGCCUCUCUGGAUUCCUCGUCACUCAGCAGGGCAUCUCUGAGAGAAAUGCC [U14C U73G] yielded a self-cleavage of 1.05.
With UACGUAGGUGGUUCUCCCCUGAUAGUGCUAAGGGGGCCUGGAAGUUUGUACUGGGCAGAGCUCAACACAGCGUGGCAAAGUGGCUGUGGCUAGACUGCCUCUCUGGAUUCCUCGUCACUCAGCAGGGCAUCUCUGAGAGAAAUGCC [U14C G49U] the self-cleavage was 1.21.
Work on UACGUAGGUGGUUCUCCCCUGAUAGUGCUAAGGGGGCCUGGAAGUUUGGACUGGGCAGAGCUCAACACAGCGUGGCAAAGUGGCUGUGGCUAGACUGCCUCUCUGUAUUCCUCGUCACUCAGCAGGGCAUCUCUGAGAGAAAUGCC [U14C G106U] yielded a self-cleavage of 0.66.
Work on UACGUAGGUGGUUCUCCCCUGAUAGUGCUAAGGGGGCCUGGAAGUUUGGACUGGGCAGAGCUCAACACAGCGUGGCAAAGUGGCUGUGGCUAGACUGCCUCUCAGGAUUCCUCGUCACUCAGCAGGGCAUCUCUGAGAGAAAUGCC [U14C U104A] yielded a self-cleavage of 1.04.
In the case of UACGUAGGUGGUUCUCCCCUGAUAGUGCUAAGGGGGCCUGGAAGUUUGGACUGGGCAGAACUCAACACAGCGUGGCAAAGUGGCUGUGGCUAGACUGCCUCUCUGGAUUCCUCGUCACUCAGCAGGGCAUCUCUGAGAGAAAUGCC [U14C G60A], the self-cleavage is reported as 0.11.
Work on UACGUAGGUGGUUCUCCCCUGAUAGUGCUAAGGGGGCCUGGAAGUUUGGACUGGGCAGAGCUCAACACAGCGUGGCAAAGCGGCUGUGGCUAGACUGCCUCUCUGGAUUCCUCGUCACUCAGCAGGGCAUCUCUGAGAGAAAUGCC [U14C U81C] yielded a self-cleavage of 1.43.
In the case of UACGUAGGUGGUUCUCCCCUGAUAGUGCUAAGGGGGCCUGGAAGUUUGGACUGGGCAGAGCUCAACACAGCAUGGCAAAGUGGCUGUGGCUAGACUGCCUCUCUGGAUUCCUCGUCACUCAGCAGGGCAUCUCUGAGAGAAAUGCC [U14C G72A], the self-cleavage is reported as 1.23.
Work on UACGUAGGUGGUUCUCCCCUGAUAGUGCUAAGGGGGCCUGGAAGUUUGGACUGGGCAGAGCUCAACACAGCGUGGCAAAGUGGCUGUGGCUAGACCGCCUCUCUGGAUUCCUCGUCACUCAGCAGGGCAUCUCUGAGAGAAAUGCC [U14C U96C] yielded a self-cleavage of 0.18.
UACGUAGGUGGUUCACCCCUGAUAGUGCUAAGGGGGCCUGGAAGUUUGGACUGGGCAGAGCUCAACACAGCGUGGCAAAGUGGCUGUGGCUAGACUGCCUCUCUGGAUUCCUCGUCACUCAGCAGGGCAUCUCUGAGAGAAAUGCC [U14C U15A] gave a self-cleavage of 0.93.
UACGUAGGUGGUUCCCCCCUGAUAGUGCUAAGGGGGCCUGGAAGUUUGGACUGGGCAGAGCUCAACACAGCGUGGCAAAGUGGCUGUGGCUAGACUGCCUCUCUGGAUUCCUCGUCACUCAGCAGGGCAUCUCUGAGAGAAAUGCC [U14C U15C] gave a self-cleavage of 1.27.
UACGUAGGUGGUUCUCCCCUGAUAGUGCUAAGGGGGCCUGGAAGUUUGGACUGGGCAGAGCUCAACACAGCGUGGCAAAGUGGCUGUGGCAAGACUGCCUCUCUGGAUUCCUCGUCACUCAGCAGGGCAUCUCUGAGAGAAAUGCC [U14C U91A] showed a self-cleavage of 0.91.
In the case of UACGUAGGUGGUUCUCCCCUGAUAGUGCUAAGGGGGCCUGGAAGUUUGGACUGGGCAGAGCUCAACACAGCGUGACAAAGUGGCUGUGGCUAGACUGCCUCUCUGGAUUCCUCGUCACUCAGCAGGGCAUCUCUGAGAGAAAUGCC [U14C G75A], the self-cleavage is reported as 0.82.
UACGUAGGUGGUUCUCCCCUGAUAGUGCUAAGGGGGCCUGGAAGUUUGGACUGGGCAGAGCUCAACACAGCGUGGCAAAGUGGCUGUGGCUAGACUGCCUCUCUGGAUUCCUCGUCACUCAGCAGGGCAUCUCUGAGAGAAAUACC [U14C G144A] showed a self-cleavage of 1.13.
With UACGUAGGUGGUUCUCCCCUGAUAGUGCUAAGGGGGCCUGGAAGUUUGGACUGGGCAGAGCUCAACACAGCGUGGCAAAGUGGCUGUGGCUAGACUGCCUCUCUGGAUUCCUCGUCACUCAGCAGGGCAUCUCUGAAAGAAAUGCC [U14C G137A] the self-cleavage was 0.82.
Variant UACGUAGGUGGUUCUCCCCUGAUAGUGCUAAGGGGGCCUGGAAGUUUGGACCGGGCAGAGCUCAACACAGCGUGGCAAAGUGGCUGUGGCUAGACUGCCUCUCUGGAUUCCUCGUCACUCAGCAGGGCAUCUCUGAGAGAAAUGCC [U14C U52C] has a self-cleavage of 1.21.
For UACGUAGGUGGUUCUCCCCUGAUAGUGCUAAGGGGGCCUGGAAGUUUGGACGGGGCAGAGCUCAACACAGCGUGGCAAAGUGGCUGUGGCUAGACUGCCUCUCUGGAUUCCUCGUCACUCAGCAGGGCAUCUCUGAGAGAAAUGCC [U14C U52G], the self-cleavage was 1.51.
